Results: US20250313633A1 (WUXI BIOLOGICS IRELAND, published 2025)

Legend:
[1] = target: T1, human full-length B7H3 on MCF-7 cells (human, UniProt Q5ZPR3 29-534); assay: FACS on MCF-7 cells
T1 chain: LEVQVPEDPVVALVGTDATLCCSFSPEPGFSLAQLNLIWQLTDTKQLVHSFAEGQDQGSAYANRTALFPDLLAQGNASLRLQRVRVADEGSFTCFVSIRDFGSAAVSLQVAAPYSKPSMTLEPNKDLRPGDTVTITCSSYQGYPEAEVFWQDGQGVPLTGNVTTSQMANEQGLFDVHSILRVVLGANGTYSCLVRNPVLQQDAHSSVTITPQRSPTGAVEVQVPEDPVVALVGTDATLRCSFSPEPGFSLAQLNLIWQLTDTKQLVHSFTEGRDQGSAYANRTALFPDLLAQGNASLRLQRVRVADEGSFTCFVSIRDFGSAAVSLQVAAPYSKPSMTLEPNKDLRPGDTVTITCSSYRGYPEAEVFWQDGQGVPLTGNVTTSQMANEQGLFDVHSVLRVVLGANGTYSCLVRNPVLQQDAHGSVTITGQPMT

[2] = target: T1, human full-length B7H3 on MCF-7 cells; assay: cell-based or functional assay
[3] = target: T1, human full-length B7H3 on MCF-7 cells; assay: cell-based or functional assay

B1: W301088-1.145.16-z3-p1-uIgG1KV320 (antibody, V domains shown)
VH: QVQLQESGPGLVKPSQTLSLTCTVTDYSITGDYAWNWIRQHPGKGLEWIGYISYSGSTSYNPSLQSRVTISRDTSKNQFSLKLSSVTAADTAVYFCARSLGRRWYFVVWGQGTTVTVSS
VL: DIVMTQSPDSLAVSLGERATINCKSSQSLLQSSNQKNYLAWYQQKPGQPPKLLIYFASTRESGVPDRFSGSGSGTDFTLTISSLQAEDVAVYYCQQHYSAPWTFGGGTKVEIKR
notes: human IgG1 LALA, kappa; also called the final lead antibody; final lead
[1]
  Max MFI: 19900 MFI
[2]
  internalization, EC50: 0.51 nM
[3]
  Internalization on MCF-7, EC50: 0.44 nM
  Internalization on MCF-7, Max MFI: 52300 MFI

B2: W301088-1.145.16-xIgG1KV320 (antibody, V domains shown)
VH: DVQLQESGPGLVKPSQSLSLTCTVTDYSITGDYAWNWIRQFPGNKLEWMGYISYSGSTSYNPSLQSRISITRDTSKNQFFLQLNSVTSEDTATYFCARSLGRRWYFVVWGAGTTVTVSA
VL: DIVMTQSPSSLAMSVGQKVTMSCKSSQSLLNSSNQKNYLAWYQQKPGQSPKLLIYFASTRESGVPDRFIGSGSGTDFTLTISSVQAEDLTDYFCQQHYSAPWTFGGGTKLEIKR
notes: also called the chimeric antibody; chimeric antibody
[1]
  Max MFI: 19800 MFI
[3]
  Internalization on MCF-7, EC50: 0.51 nM
  Internalization on MCF-7, Max MFI: 57200 MFI

B3: Enoblituzumab (MacroGenics) (antibody, V domains shown)
VH: EVQLVESGGGLVQPGGSLRLSCAASGFTFSSFGMHWVRQAPGKGLEWVAYISSDSSAIYYADTVKGRFTISRDNAKNSLYLQMNSLRDEDTAVYYCGRGRENIYYGSRLDYWGQGTTVTVSS
VL: DIQLTQSPSFLSASVGDRVTITCKASQNVDTNVAWYQQKPGKAPKALIYSASYRYSGVPSRFSGSGSGTDFTLTISSLQPEDFATYYCQQYNNYPFTFGQGTKLEIKR
[1]
  Max MFI: 4640 MFI
[3]
  Internalization on MCF-7, EC50: 1.95 nM
  Internalization on MCF-7, Max MFI: 39800 MFI
